Laboratory results published in patent US20130022601A1 (Hoffmann-La Roche, published 2013).
Each block holds one binder with its values, some of them ahead of it.

Key:
Her3 (ErbB3) receptor = target: T1, Her3 (ErbB3) receptor (human, UniProt P21860 20-1342); test: flow cytometry on A431 cells, PE-coupled anti-human Fc secondary antibody
T1 construct: whole, on cells; Endogenous receptor on human cancer cell lines
Experimental: (§1) A431 were detached and counted. 1.5×10e5 cells were seeded per well of a conical 96-well plate. Cells were spun down (1500 rpm, 4° C., 5 min) and incubated for 30 min on ice in 50 μL of a dilution series of the respective bispecific antibody in PBS with 2% FCS (fetal calf serum). Cells were again spun down and washed once with 200 μL PBS containing 2% FCS followed by a second incubation of 30 min with a phycoerythrin-coupled antibody directed against human Fc which was diluted in PBS containing 2% FCS (Jackson Immunoresearch, 109116098). Cells were spun down washed twice with 200 μL PBS containing 2% FCS, resuspended in BD CellFix solution (BD Biosciences) and incubated for at least 10 min on ice. Mean fluorescence intensity (mfi) of the cells was determined by flow cytometry (FACS Canto, BD). Mfi was determined at least in duplicates of two independent stainings Flow cytometry spectra were further processed using the FlowJo software (TreeStar). Half-maximal binding was determined using XLFit 4.0 (IDBS) and the dose response one site model 205.
(§2) The binding properties of the bispecific antibodies to their respective receptor on the cell surface was analyzed on A431 cancer cells in a flow cytometry based assay. Cells were incubated with the mono- or bispecific primary antibodies and binding of these antibodies to their cognate receptors was detected with a secondary antibody coupled to a fluorophore binding specifically to the Fc of the primary antibody. The mean fluorescence intensity of a dilution series of the primary antibodies was plotted against the concentration of the antibody to obtain a sigmoidal binding curve. Cell surface expression of c-Met and Her3 was validated by incubation with the bivalent 5D5 and Her3 clone 29 antibody only. The Her3/c-Met_KHSS antibody readily binds to the cell surface of A431.

c-Met receptor = target: T2, c-Met receptor (human, UniProt P08581 25-1390); test: as above
T2 construct: whole, on cells; Endogenous receptor on human cells
T2 sequence (P08581 25-1390): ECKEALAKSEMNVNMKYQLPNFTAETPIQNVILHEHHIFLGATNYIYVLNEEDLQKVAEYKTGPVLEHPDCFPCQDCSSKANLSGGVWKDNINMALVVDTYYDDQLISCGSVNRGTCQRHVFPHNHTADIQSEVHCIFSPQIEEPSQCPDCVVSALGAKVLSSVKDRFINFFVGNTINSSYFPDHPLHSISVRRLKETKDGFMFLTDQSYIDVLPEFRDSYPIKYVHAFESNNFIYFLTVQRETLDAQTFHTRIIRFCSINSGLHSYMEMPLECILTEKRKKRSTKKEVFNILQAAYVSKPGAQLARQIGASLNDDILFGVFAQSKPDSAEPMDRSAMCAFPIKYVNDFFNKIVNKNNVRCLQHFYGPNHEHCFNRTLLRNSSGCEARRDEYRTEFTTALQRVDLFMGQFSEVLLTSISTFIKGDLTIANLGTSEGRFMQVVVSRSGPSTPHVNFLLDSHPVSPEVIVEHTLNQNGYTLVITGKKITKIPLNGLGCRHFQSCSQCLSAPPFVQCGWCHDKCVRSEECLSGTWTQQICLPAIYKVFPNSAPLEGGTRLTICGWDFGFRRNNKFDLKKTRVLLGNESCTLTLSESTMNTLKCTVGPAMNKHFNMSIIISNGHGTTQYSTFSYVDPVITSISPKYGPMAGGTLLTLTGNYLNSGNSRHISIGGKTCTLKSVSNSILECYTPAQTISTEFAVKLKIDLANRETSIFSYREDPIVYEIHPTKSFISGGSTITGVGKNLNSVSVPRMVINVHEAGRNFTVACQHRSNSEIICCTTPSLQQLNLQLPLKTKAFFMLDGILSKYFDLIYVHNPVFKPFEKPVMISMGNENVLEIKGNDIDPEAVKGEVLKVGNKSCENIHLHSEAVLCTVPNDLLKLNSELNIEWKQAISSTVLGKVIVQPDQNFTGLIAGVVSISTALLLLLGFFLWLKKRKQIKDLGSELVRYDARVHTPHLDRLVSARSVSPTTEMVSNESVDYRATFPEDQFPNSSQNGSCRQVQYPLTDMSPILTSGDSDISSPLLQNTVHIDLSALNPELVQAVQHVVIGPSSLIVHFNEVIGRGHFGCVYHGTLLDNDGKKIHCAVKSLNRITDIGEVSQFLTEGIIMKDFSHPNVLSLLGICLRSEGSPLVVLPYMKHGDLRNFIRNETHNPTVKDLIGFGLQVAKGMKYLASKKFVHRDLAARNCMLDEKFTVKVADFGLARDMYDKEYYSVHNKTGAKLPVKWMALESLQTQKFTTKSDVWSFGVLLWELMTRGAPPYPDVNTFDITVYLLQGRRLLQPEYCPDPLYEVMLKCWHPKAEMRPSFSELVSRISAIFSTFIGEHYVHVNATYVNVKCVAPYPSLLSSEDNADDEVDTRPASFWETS
Experimental: as §1, §2

T1 sequence (P21860 20-1342): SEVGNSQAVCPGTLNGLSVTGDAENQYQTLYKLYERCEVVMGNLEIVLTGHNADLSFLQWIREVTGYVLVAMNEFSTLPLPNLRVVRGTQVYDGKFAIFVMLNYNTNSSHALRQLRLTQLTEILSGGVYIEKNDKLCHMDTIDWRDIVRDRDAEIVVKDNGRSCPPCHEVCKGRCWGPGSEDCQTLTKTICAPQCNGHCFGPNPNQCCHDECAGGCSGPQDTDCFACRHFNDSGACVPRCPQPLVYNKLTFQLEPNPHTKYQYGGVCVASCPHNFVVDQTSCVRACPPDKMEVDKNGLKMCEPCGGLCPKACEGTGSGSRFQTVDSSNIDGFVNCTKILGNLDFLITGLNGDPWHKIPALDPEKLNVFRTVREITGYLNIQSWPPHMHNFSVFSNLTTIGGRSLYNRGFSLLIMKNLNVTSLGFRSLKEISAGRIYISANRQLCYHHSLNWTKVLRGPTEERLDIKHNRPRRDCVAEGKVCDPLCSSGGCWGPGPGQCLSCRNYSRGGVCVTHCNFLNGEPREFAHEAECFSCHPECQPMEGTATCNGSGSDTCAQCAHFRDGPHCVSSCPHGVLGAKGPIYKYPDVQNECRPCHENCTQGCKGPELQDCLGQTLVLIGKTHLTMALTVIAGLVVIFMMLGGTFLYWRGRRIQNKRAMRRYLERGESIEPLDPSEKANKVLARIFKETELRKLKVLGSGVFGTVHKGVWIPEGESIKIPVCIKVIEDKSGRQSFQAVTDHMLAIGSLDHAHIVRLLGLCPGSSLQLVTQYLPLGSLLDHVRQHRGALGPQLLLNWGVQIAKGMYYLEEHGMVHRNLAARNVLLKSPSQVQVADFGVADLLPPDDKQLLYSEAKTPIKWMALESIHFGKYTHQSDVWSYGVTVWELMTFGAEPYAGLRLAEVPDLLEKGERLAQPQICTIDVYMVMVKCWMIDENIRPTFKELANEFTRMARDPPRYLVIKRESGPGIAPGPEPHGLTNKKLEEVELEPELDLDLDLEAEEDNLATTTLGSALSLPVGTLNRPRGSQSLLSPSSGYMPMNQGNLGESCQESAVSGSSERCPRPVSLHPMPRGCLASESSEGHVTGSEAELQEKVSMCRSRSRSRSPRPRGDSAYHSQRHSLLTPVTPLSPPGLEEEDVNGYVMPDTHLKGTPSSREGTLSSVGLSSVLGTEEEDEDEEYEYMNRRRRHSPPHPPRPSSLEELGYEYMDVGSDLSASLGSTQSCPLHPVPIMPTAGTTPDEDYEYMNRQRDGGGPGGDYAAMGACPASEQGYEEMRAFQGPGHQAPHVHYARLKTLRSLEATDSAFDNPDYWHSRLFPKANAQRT

binding result (Her3 (ErbB3) receptor): binds
B1: <ErbB3> HER3 clone 29 antibody (antibody, human IgG1, kappa, V domains shown)
VH: DVQLQESGPGLVKPSQSLSLTCSVTGYSITSAYYWNWIRQFPGNKLEWMGYISYGGSNSYAPSLKNRFSITRDTSKNQFFLKLNSVTTEDTATYYCARESDYAYFDYWGQGTTLTVSS
VL: DIQMTQTTSSLSASLGDRVTISCRARQDISNYLNWYQRKPDGTVKLLIYYTSRLHSGVPSRFSGSGSGTDYSLTISNLEQEDIATYFCQQGNTFPWTFGGGTKLEIKR
notes: Bivalent parental antibody (chimeric), with unmodified heavy and light chains; also called parental Her3 clone29

binding result (Her3 (ErbB3) receptor): binds
B2: trivalent, bispecific <ErbB3-c-Met> antibody Her3/Met_KHSS (bispecific antibody, human IgG1, kappa)
heavy 1: not shown
heavy 2: not shown
light: DIQMTQTTSSLSASLGDRVTISCRARQDISNYLNWYQRKPDGTVKLLIYYTSRLHSGVPSRFSGSGSGTDYSLTISNLEQEDIATYFCQQGNTFPWTFGGGTKLEIKRTVAAPSVFIFPPSDEQLKSGTASVVCLLNNFYPREAKVQWKVDNALQSGNSQESVTEQDSKDSTYSLSSTLTLSKADYEKHKVYACEVTHQGLSSPVTKSFNRGEC
notes: Full length Her3 clone 29 (chimeric) antibody with knobs-into-holes and CH3 disulfide mutations

binding result (c-Met receptor): binds
B3: <c-Met> Mab 5D5 (antibody, human IgG1, kappa, V domains shown)
VH: EVQLVESGGGLVQPGGSLRLSCAASGYTFTSYWLHWVRQAPGKGLEWVGMIDPSNSDTRFNPNFKDRFTISADTSKNTAYLQMNSLRAEDTAVYYCATYRSYVTPLDYWGQGTLVTVSS
VL: DIQMTQSPSSLSASVGDRVTITCKSSQSLLYTSSQKNYLAWYQQKPGKAPKLLIYWASTRESGVPSRFSGSGSGTDFTLTISSLQPEDFATYYCQQYYAYPWTFGQGTKVEIKR
notes: Bivalent 5D5 antibody (humanized), with unmodified heavy and light chains; also called bivalent 5D5; c-Met 5D5
